Tests used:
Debaryomyces hansenii = experiment: Inhibitory zone of Peocin on solid medium containing pathogen; type: cell-based; details: solid medium containing strain 10^6 CFU/ml
Text: (§1) Following pathogens were subjected in the test. Six aquaculture pathogen: Aeromonas hydrophila, Vibrio vulnificus, Vibrio alginolyticus, Vibrio parahaemolyticus, Streptococcus agalactiae and Debaryomyces hansenii. Five foodborne pathogen which cause food rot and food poisoning: Staphylococcus aureus, Methicillin-resistant Staphylococcus aureus (MRSA), Escherichia coli, Salmonella typhimurium and Listeria monocytogenes. Two clinical infectious pathogens: Pseudomonas aeruginosa and Burkholderia gladioli causing leaf spot disease. Culture these strains separately and create solid medium containing these strains (10^6 CFU/ml). Add antibacterial protein after solid medium solidifies, then measure the antibacterial activity and inhibitory zone diameter.

[1] = test system: Methicillin-resistant Staphylococcus aureus (MRSA); experiment: as above; type: cell-based; details: solid medium containing strain 10^6 CFU/ml
Text: as §1

Vibrio alginolyticus = experiment: as above; type: cell-based; details: solid medium containing strain 10^6 CFU/ml
Text: as §1

E. coli [2] = experiment: Antibacterial activity of Peocin expressed in E. coli BL21 (DE3)/pET-28-peocin; type: cell-based
Method: Add 30 μl E. coli BL21 (DE3)/pET-28-peocin bacterial liquid and 3 μl Kanamycin (100 mg/ml) to 3 ml LB culture broth and incubate for 24 hours. After incubation, add 0.5 ml medium and 50 μl Kanamycin (100 mg/ml) in 50 ml LB culture broth, incubate for 3 hours and add 50 μl 1M IPTG to induce expression of high-level production of protein. Incubate for 9 hours, measure the OD600 nm absorbance of bacterial broth, concentrate the bacterial liquid to OD600 nm=60/ml, wash with 1×PBS for once, place the bacterial broth in centrifuge and centrifuge it for 15 minutes with the speed of 1300 rpm. Remove the supernatant, add 2 ml 1×PBS and lyse by ultrasonic machine under 5 seconds on/5 seconds off cycle for 5 minutes, then again place the bacterial broth in centrifuge and centrifuge it for 20 minutes under 4° C. with the speed of 4000 rpm. Extract the supernatant and filter it using 0.45 μm syringe filter, then preserve the sample in 4° C. freezer to await for further steps. Load E. coli BL21 (DE3)/pET-28 and E. coli BL21 (DE3)/pET-28-peocin in the same SDS-PAGE to confirm that the transformed plasmid do express antibacterial protein in high-level production, then test antibacterial activity and measure inhibitory zone of E. coli BL21 (DE3)/pET-28 and E. coli BL21 (DE3)/pET-28-peocin protein sample on TSB medium containing E. coli to confirm the antibacterial ability of expressed protein.

E. coli [3] = experiment: Antibacterial protein stability under different preservation temperature for 70 days; type: physicochemical
Method: Place purified antibacterial protein Peocin sample in 40° C., room temperature, 4° C. and −20° C. environment respectively for 70 days. Each week during the experiment, extract samples and measure their antibacterial activity and inhibitory zone diameter using TSB agar plate containing E. coli.

E. coli [4] = experiment: Antibacterial activity of purified antibacterial protein (Resazurin reduction assay); type: cell-based; details: compared with the unpurified culture supernatant
Method: Antibacterial activity is evaluated by using Resazurin reduction assay. The Resazurin reduction assay is used to determine bacteria or cell activity, based on its reaction with mitochondria NADH dehydrogenase, which reduces the original dark blue Resazurin into pink Resorufin. Dilute the indicator bacterial strain E. coli cultured in advance to 1×10^7 CFU/ml and prepare 0.25 mg/ml Resazurin dye for following experiment. 96-well plate was divided into groups of three well as a triplication of one sample set; the total being 21 sets and every well was added with 60 μl TSB medium, 10 μl Resazurin dye, 10 μl indicator strain and 20 μl sample (total 100 μl). The aforementioned 20 μl sample is prepared by adding 0, 1, 2, . . . 20 μl of sample medium respectively, then use TSB medium to fill the total sample volume to 20 μl. Place the sample added 96-well plate in 37° C. incubation box for 12 hours and observe the results. Antibacterial unit (AU) is determined by Resazurin assay, whereas the minimum amount of sample medium required to inhibit color change is 1AU. The antibacterial activity of sampled culture in each time point is represented by how many AU there is in 1 ml of medium.
Take 500 μl liquid bacteria from −80° C. preserved NPUST-1 strain, add it to 50 ml TSB broth culture and culture it for 24 hours under 28° C. for activation. […]

E. coli [5] = experiment: Evaluation of antibacterial protein pH tolerance; type: physicochemical; details: 28° C.
Method: Add the purified antibacterial substance in PBS buffer pH7.4 as control group. The experimental groups comprise pH 2, pH3, pH 4, pH 5, pH 6, pH 7, pH 8, pH 9 and pH 10 group, the buffer used for different pH treatment are Glycine-HCl buffer (pH 2.0), Citrate-phosphate Mcllvaine buffer (pH 3.0, 4.0, 5.0 and 6.0), Sodium-phosphate buffer (pH 7.0), Tris(hydroxymethyl) aminomethane buffer (pH 8.0 and 9.0) and Glycine-NaOH buffer (pH 10.0). First, add 500 μl of purified antibacterial protein in 15 ml centrifuge individually for each group, then add 2 ml of different pH buffer to change pH environment of treated antibacterial substance and stand for 4 hours under 28° C. After 4 hours, measure the antibacterial activity and inhibitory zone diameter using TSB agar plate containing E. coli.

proteinase K = proteinase K (Parengyodontium album, UniProt P06873); experiment: Sensitivity of antibacterial protein Peocin to protease; type: physicochemical; details: protease K 1 mg/ml, 4 hours, 37° C.
Method: (§2) Evaluate sensitivity of Peocin to proteinase K and trypsin respectively. First, add 180 μl of purified antibacterial protein peocin into 1.7 ml micro-centrifuge tube, then add 20 μl of 10 mg/ml proteinase K and trypsin respectively for the final concentration of protease to be 1 mg/ml, then stand for 4 hours under 37° C. for reaction. Next, use TSB agar plate containing E. coli to measure the antibacterial activity and inhibitory zone diameter. For comparison, use PBS buffer without antibacterial protein as buffer group, and control group is purified antibacterial protein peocin without protease.

trypsin = experiment: as above; type: physicochemical; details: trypsin 1 mg/ml, 4 hours, 37° C.
Method: as §2

Chain of proteinase K (P06873 106-384): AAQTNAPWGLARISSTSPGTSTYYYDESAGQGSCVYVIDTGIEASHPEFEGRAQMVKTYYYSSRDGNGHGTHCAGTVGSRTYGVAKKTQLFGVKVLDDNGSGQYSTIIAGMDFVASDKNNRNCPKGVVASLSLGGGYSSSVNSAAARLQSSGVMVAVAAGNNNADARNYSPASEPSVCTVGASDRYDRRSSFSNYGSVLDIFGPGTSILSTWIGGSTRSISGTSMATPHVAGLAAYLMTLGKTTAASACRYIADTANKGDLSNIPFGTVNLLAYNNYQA

B1: Peocin: bacteriocin; DNA starvation/stationary phase protection protein produced by Paenibacillus ehimensis NPUST-1, amino acid SEQ ID NO: 1 (protein, listed as Paenibacillus ehimensis)
chain: MNEQLTVLLNNQIANWSVLYVKLHNYHWYVKGPQFFTLHTKFEELYTEAALHVDALAERLLALGGKPVATMSGSLRLASVREAEGEESAERMVAALVNDFTLIIGELKSGMKYAESVQDETTGDLLLAIHSSLEKHVWMLNAFLGN
In the case of B1, the “Diameter of inhibitory zone” value (Debaryomyces hansenii) is reported as 1.3 ± 0.00 cm, the “Diameter of inhibitory zone” value [1] is reported as 1.1 ± 0.05 cm and the “Diameter of inhibitory zone” value (Vibrio alginolyticus) is reported as 1.1 ± 0.03 cm. The “antibacterial activity when expressed in E. coli” value (E. coli [2]; inside E. coli BL21 (DE3)/pET-28-peocin after induction) was “no antibacterial activity”, the “antibacterial activity of recombinant protein released outside of E. coli” value (E. coli [2]; supernatant of lysed E. coli BL21 (DE3)/pET-28-peocin, TSB medium containing E. coli) was “antibacterial effect” and the “antibacterial activity remained after preservation” value (E. coli [3]; 4° C.) was 90%. For the same molecule, the “antibacterial activity remained after preservation” value (E. coli [3]; 40° C.) was 66%, the “antibacterial activity remained after preservation” value (E. coli [3]; room temperature) was 80% and the “antibacterial activity remained after preservation” value (E. coli [3]; −20° C.) was 90%. The “antibacterial activity after preliminary purification” value (E. coli [4]) was “significantly higher”, the antibacterial activity remained (E. coli [5]; pH2 for 4 hours) was 87% and the “antibacterial activity after pH treatment” value (E. coli [5]; pH 3~10 for 4 hours) was “remain stable”. The “antibacterial activity after protease treatment” value (proteinase K) was “stable antibacterial activity” and the “antibacterial activity after protease treatment” value (trypsin) was “stable antibacterial activity”.
